According to patent US20210221874A1 (TRUSTEES OF TUFTS COLLEGE, published 2021):

B1: JHD-B6 (VHH)
VHH: QVQLVESGGGLVQPGGSLRLSCAASGSSFSRYAMRWYRQAPGKQRELVANINSRGTSNYADSVKGRFTISRDNAKNTVYLQMNSLKPEDTAVYYCNAEWLGRSEPSWGQGTQVTVSS
B2: JKH-C7 (VHH)
VHH: VQLVESGGGGLVQAGGSLRLSCAASGRTFSGYAMGWFRQAPGKEREFVADISWSGHNTYYGDSVKGRFTISRDTAKNTVYLQMNSLKPEDTAVYYCAAEGARTHLSDSYYFPGLWAEPPVGYWGQGTQVTVSS
notes: also called JHK-C7
B3: JKO-E12 (VHH)
VHH: QVQLAETGGGLVQAGGSLRLSCLASRMSFSRRPMAWYRQAPGKQRERVATISSFGDTTNYTDSVEGRFTISRDNAKNTMYLQMNSLKPDDTAVYYCNTLLATYAWGQGTQVTVSS
B4: JIK-B8 (VHH)
VHH: SGGGLVQPGGSLGLSCVVASERSINNYGMGWYRQAPGKQRELVAQISSGGTTNYADSVEGRFTISRDNVKKMVHLQVNSLKPEDTAVYYCNSLLRTFSWGQGTQVTVSS
B5: JIJ-D3 (VHH)
VHH: QVQLVETGGLVQPGGSLRLSCAASGLTFSSTAMAWFRQAPGKEREFVARISGAGITIYYSDSVKDRFTISRNNVENTVYLQMNSLKTEDTAVYYCAARRNTYTSDYNIPARYPYWGQGTQVTVSS
B6: JIJ-E9 (VHH)
VHH: QVQLVETGGLVQPGGSLRLSCAASRSTTATIYSMNWYRQAPGKQRELVAGMTSDGQTNYATSVKGRFTISRDNAKNTVYLLMNSLKLEDTAVYYCYVKPWRLQGWDYWGQGTQVTVSS
B7: JIK-B10 (VHH)
VHH: QVQLVETGGGLVQPGGSLRLSCAASGFTFSSYRMSWYRQAAGKERDVVATITANGVPTGYADSVMGRFTISRDNAKNTVYLEMNSLNPEDTAVYYCNAPRLHTSVGYWGQGTQVTVSS
B8: JKH-A4 (VHH)
VHH: QVQLAETGGGLVQAGGSLRLSCSASGLTFGNYAMGWFRQAPGKEREFVASISRSGSNTWYAEPLKGRFAISRDNDKNALYLQMNSLKPEDTAVYYCAGGSYNSDWWNYMYWGQGTQVTVSS
B9: JKH-D12 (VHH)
VHH: QVQLVETGGGLVQAGGTLRLSCAASGRTFTSYYIGWFRQEPGKEREFVASIGWTDDNTYYADSVKGRFTISRDNAETTAYLQMSGLKPEDTAVYYCAADYGSGIRAWYNWIYWGQGTQVTVSS
B10: JKM-A6 (VHH)
VHH: QLQLAETGGGLVQPGGSLRLSCAASGATLDTYIITWFRQAPGKEREAVSCINRSGSTTYSDSVKGRFTISRDNAQKTVYLQMNSLNPEDTAIYYCAADASYRTCGGSWWNWAYWGQGTQVTVSS
B11: JKO-A4 (VHH)
VHH: QVQLAESGGGSVQPGGSLRLSCAASGFTFSSYTMSWVRQAPGKGIEWVSDINGGGDRTDYADSVKGRFTISRDNARNTLYLQMNSLQPEDTAVYYCAKDLSYVSGTYFANDWGQGTQVTVSS
B12: JKO-B8 (VHH)
VHH: QLQLAESGGGLVQPGGSLRLSCTASGIIFDYYSVDWYRQAPGKERELVATITGDGSPNYADSVKGRFTISRDNAKKTVYLQMNGLKPEETAVYYCHAKRTIGTKSEYWGQGTQVTVSS
B13: JKO-H2 (VHH)
VHH: QVQLAESGGGLVQAGGSLRLSCAASGRTFSSYVMGWFRQAPGKEREFVAAISRNGGKTYYADSVKGRFTISRDGTENTVYLQMNSLKPEDTAVYYCAAAVAASAEFVTARSNFYEYWGQGTQVTVSS
notes: also called JKO-H12
B14: JIJ-A12 (VHH)
VHH: QVQLVESGGGLVQPGGSLRLSCAASGIIFSIYTMGWYRQAPGKQRELVAAIPSGPSANATDSVGGRFTITRDNAENTVYLQMNDLKPEDTAVYYCNARRGPGIKNYWGQGTQVTVSS
B15: JIJ-B8 (VHH)
VHH: SGGGLVQPGGSLSVSCAASGSIARPGAMAWYRQAPGKERELVASITPGGLTNYADSVTGRFTISRDNAKRTVYLQMNSLQPEDTAVYYCHARIIPLGLGSEYRDHWGQGTQVTVSS

What was measured:
[1] = target: T1, anthrax protective antigen, wild type PA83 (Bacillus anthracis, UniProt P13423 30-764); experiment: SPR (ProteOn XPR36)
T1 construct: mature
T1 sequence (P13423 30-764): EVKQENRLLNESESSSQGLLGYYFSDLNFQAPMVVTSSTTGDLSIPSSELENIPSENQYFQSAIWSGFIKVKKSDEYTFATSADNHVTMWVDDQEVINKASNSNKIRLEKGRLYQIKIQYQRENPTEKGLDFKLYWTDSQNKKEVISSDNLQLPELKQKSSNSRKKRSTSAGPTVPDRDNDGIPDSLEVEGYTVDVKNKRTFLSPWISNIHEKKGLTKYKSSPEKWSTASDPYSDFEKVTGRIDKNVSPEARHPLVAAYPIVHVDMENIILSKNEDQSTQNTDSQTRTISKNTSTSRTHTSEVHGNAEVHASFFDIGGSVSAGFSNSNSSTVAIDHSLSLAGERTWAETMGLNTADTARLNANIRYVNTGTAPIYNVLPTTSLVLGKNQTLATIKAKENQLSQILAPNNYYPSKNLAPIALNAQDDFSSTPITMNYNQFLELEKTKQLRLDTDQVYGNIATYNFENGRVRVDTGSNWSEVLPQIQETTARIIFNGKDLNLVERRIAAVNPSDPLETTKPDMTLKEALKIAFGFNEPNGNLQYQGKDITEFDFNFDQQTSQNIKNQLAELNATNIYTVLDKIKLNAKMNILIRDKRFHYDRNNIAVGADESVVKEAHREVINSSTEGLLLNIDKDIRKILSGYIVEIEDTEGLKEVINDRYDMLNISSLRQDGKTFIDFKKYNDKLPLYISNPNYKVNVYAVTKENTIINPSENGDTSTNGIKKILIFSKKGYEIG

[2] = target: T1, anthrax protective antigen, wild type …; experiment: cell-based or functional assay
[3] = target: T1, anthrax protective antigen, wild type …; experiment: dilution ELISA on PA-coated plates
[4] = target: T1, anthrax protective antigen, wild type …
[5] = target: T1, anthrax protective antigen, wild type …; experiment: SPR (Biacore 3000)
[6] = target: T1, anthrax protective antigen, wild type …; experiment: cell-based or functional assay; remark: listed apart in the source

| Binder | Kd [1] [nM] | IC50 (anthrax lethal toxin neutralization, RAW264.7 macrophages) [2] [nM] | EC50 [3] [nM] | EC50 (read off the curve) [4] [nM] | Kd [5] [nM] | IC50 (read off the curve) [6] [nM] |
| --- | --- | --- | --- | --- | --- | --- |
| B1 | 66 | 10 | 0.5 | – | – | – |
| B2 | – | 5 | 2 | ~2 | 7 | ~4 |
| B3 | – | 0.2 | 0.1 | – | 0.2 | – |
| B4 | 0.13 | 1 | 0.2 | – | – | ~1 |
| B5 | 18 | 9 | 0.3 | – | – | – |
| B6 | 12 | 30 | 0.4 | – | – | – |
| B7 | 9 | 8 | 0.2 | – | – | – |
| B8 | – | – | 0.5 | – | 9 | – |
| B9 | – | – | 0.3 | – | 1 | – |
| B10 | – | – | 0.3 | – | 20 | – |
| B11 | – | – | 0.3 | – | 10 | – |
| B12 | – | – | > 100 | – | 200 | – |
| B13 | – | – | 0.6 | – | 4 | – |
| B14 | 45 | – | 2 | – | – | – |
| B15 | 8 | – | 0.4 | – | – | – |
